Here are results for one substance from IntAct's records for PubMed 20133640.

The experiment deals with ssph2_salty sspH2 (UniProt P0CE12).
Chain of ssph2_salty sspH2 (P0CE12 whole entry): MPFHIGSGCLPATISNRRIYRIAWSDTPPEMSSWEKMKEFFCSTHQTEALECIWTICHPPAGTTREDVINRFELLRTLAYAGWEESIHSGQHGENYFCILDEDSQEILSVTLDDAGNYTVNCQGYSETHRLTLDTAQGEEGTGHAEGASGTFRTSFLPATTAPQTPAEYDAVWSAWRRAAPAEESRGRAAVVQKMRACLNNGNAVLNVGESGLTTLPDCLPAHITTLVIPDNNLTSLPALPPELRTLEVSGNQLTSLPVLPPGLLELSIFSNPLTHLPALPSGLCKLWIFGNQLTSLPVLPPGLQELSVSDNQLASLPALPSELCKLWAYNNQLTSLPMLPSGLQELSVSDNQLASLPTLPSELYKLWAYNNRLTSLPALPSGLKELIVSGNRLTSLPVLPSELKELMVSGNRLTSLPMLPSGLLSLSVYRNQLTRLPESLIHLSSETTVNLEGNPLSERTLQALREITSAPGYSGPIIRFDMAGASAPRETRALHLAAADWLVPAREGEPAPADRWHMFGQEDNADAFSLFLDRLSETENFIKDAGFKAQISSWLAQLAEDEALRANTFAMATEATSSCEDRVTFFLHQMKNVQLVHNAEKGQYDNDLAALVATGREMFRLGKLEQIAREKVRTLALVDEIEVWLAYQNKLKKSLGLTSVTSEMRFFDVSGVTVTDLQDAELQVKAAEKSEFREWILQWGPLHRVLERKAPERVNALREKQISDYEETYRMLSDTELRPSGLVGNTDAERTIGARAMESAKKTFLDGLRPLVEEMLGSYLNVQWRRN

Chain of Ubiquitin-conjugating enzyme E2 D3 (Homo sapiens), P61077 A96D (P61077 whole entry A96D): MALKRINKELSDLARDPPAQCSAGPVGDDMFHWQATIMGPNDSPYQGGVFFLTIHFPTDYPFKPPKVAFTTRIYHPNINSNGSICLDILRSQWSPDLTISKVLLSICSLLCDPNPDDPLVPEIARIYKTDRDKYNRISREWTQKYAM

As for “Ubiquitin-conjugating enzyme E2 D3 (Homo sapiens), P61077 A96D”, the “effect of a mutation on the interaction” value is given as “decreasing interaction”.
